Assay: soluble on expression in E. coli; label from the status in PepcDB or PDB records

MGSDKIHHHHHHMNQNRIPLYEALIEFKERRPLSFHVPGHKNGLNFPQGAVEEFKDILSIDVTELSGLDDLHSPFECIDEAQQLLADVYEVEKSYFLINGSTVGNLAMILSCCREHDIVLVQRNCHKSIINGLKLAGANPIFLDSWIDEAYNVPVGIHDEIIKEAIEKYPNAKALILTHPNYYGMGMDLEASIAYAHAHKIPVLVDEAHGAHFCLGGAFPKSALAYGADIVVHSAHKTLPAMTMGSYLHINSRLVKEERVSTYLSMLQSSSPSYPIMASLDIARFTIARIKEKGHDEIVEFLREFKEELSSIPQIAILQYPLQDELKVTVQTRCQLSGYELQSVLEKVGIYTEMADPYNVLFILPLQVNKTYMKAVEMIRAALQSYEVKDKTESIRYTYKGEISPLPYTYKQLEGYETKVVSVEEAVGMIAAEMVIPYPPGIPLIMYGERITSEHKEQIMHLERAGARFQGSTKYMKVYDIESRF
soluble on expression in E. coli: not soluble

GVALGATRVIYPEGQKQVQLAVTNNDDKSSYLIQSWIENAEGKKDARFVITPPLFSMQGKKENTLRIIDATNGQMPEDRESLFWVNVKAIPAMDKAKTGENYLQFAIVSRIKLLYRPQGLVIPPEQAPGKLEFTRENGGLTLFNPTPYYLTVTDLKAGNKSLENTMVPPQGKVTVNIPGGYTGGDITYKTINDYGALTEQVRGVVK
soluble on expression in E. coli: soluble

MILFDYKLLAALAAVVEQGGFERAAQALGLSQSAVSQRIKLLEARVGQPVLVRETPPHPTDLGRRLLNHVQQVRLLEGDLQRWVPNLDEGGAPERLRIALNADSLATWWAAAVGDFCAERRVLLDLVVEDQEVGLKRMRAGEVAGCVCGSARPVAGARSLLLGAMRYRGLASPDFIARHFPRGVEAAALAGVPAIVFGPDDLLQHRFLKDLGVEGGFIHHLCPSSEGFVRLTAGGLGWGLVPERQVQGELARGELVELLPGQVIDVPLYWHYWRNGGELLASLTEHLLARAGDGLVRVSG
soluble on expression in E. coli: not soluble

MSEQDATLDEFVEEGESESTDSANIDPNTLDQEQFGPFTLSTPGEWTAKRLGDIKQLITRGKQPTYDDDGVPVINQECIYWDGWHFENLRYLEEDVAEGWKEKYFPESGDVIVNSTGQGTLGRAQVYPGDQRRAIDSHVTLLRTDEQLCPHFHRYFFESHLGQALLYSMCVNGSTGQIELSKTRLDLLPTPLPPLEEQRKIASVLYNVDQAIQKTEAVIEKIERLKQGLLDDLFTKGLSESNSLRPSPEDHPGLYKKERRQTIPSEWNVESLQNLCVENITYGIVQPGPHVEDGVPYINTEDMTDGDIPTEGLSRTSPEIAEKYSRSQIHAEELVVTIRATIGAVDQVPPELEGANLTRGTARVVPGDKVDNTFLLWAIRSNNFQSELDARVKGTTFDEINLDQLGKIPVPHPDIDEQDRIVDELSTIEERMENEESYLEQLKRLKQGLMQDLLSGEVRTTDVDIPVLDAVAQHG
soluble on expression in E. coli: soluble

DPSKGRWVEGITSEGYHYYYDLISGASQWEKPEGFQGDLKKTAVKTVWVEGLSEDGFTYYYNTETGESRWEKPDD
soluble on expression in E. coli: soluble

MGKRKTKEDNASEDYDANELMIVPGEKRKKLEKSGEKSATGGKKNRNFAKEKEVAKLTKQAKRKLAAVQSRKALKQTQEELFAGLAEFQLDPSKLCQLSSSTKLSKEPEKAPVFPEKLKVFSGKTKTEAKRTQQDYYPTDDESSSEEEEEEEEGDNDIEDAGNTVEVKIEPIDLDDVDEAIDGNPETNLDQIVVKREDDEESDNEDILALPTTTVINRKKVIVERSKEIQKSRAELPIFAEEMRIVEAINENLVTVVCGETGSGKTTQIPQFLYEAGYASEGELIGITEPRRVAAIAMAQRVGVELAKPDEVSYQIRYEGTRSETTNILFMTDGVLMKEMEQDVMLKKYSVILIDEAHERSMYSDVLIGMLSRIVPLRSKTARPLRLVIMSATLRLDDFTHKKLFPLLTPKVIKVDARQFPVSVHFEKRTPDDYIASAFRKTCRIHETLPPGAILVFVTGQHEVKQLITKLKKRYPVVYETDKNGEVLVKGTKEWKEKKVEAAKSIKLEDFKEETPETEDFEDVDDGLMDGDDMNERGAAEAFDDYEEFENGDGDLSDGKVENSIGAPPADCEPLYCLPLYSLLSMGKQRRVFDETPAGMRLCVISTNVAETSLTIPGVKYVIDGGFEKRRLYDSITGVSRFAVCRISQASGDQRAGRAGRISAGHAYRLYSSAVYQDFVKFADPEILSKPADQLVLHLKSMNIVKVVNFPFPSAPDEQMLESAEKRLCRLGALSESTKNGKTEARITKLGKTLAVFPLAPSYAKFIAMADQHNLMSHAILLISLLSVREPLIPVSSLRGDTPEETKELMKNVLKERRRWCSHTGARRLGDLKVLMHAASVAEQIKYNARECEKVGLRVKALVEARKLRQQLTNIVNASCKKEHAAALDSDLPPPTDQQAQLLRQMVVASFSDRLARRVDRSVGQEEVQKGAYETTLIKGHVFIDPCSVVFTEEPEFVIYQELVQVNEKKLMTSVCAVDKEWLSRLAESYCNYGEQDKNQEPIYDPVKDMVVKTVKVTFGPLNWELPNENRSVPHDIMMYRYFALFLLDGLVFEKLKEYTPKLLAPPSTMVKSWAKLQKRTEMLLNKLIEKEVTTRSSLKEQWLKNENWLLEEYLEWVPESVHQQISLMWPPLEDHEKTIKMGRNKKY
soluble on expression in E. coli: not soluble

MSLNSNTEKRIALISVHGDPAIEIGKEEAGGQNVYVREVGKALAQLGWQVDMFSRKVSPEQELIVHHSPLCRTIRLTAGPEEFVPRDNGFKYLPEFVQQLLRFQKENNVNYPLVHTNYWLSSWVGMQLKAIQGSKQVHTYHSLGAVKYKSIDTIPLVATKRLSVEKQVLETAERIVATSPQEQQHMRSLVSTKGYIDIVPCGTDIHRFGSIARQAARAELGIDQEAKVVLYVGRFDQRKGIETLVRAMNESQLRDTNKLKLIIGGGSTPGNSDGRERDRIEAIVQELGMTEMTSFPGRLSQDVLPAYYAAADVCVVPSHYEPFGLVAIEAMASGTPVVASDVGGLQFTVVSEKTGLLVPPKDIAAFNIAIDRILMNPQWRDELGLAARKHVTHKFGWEGVASQLDGIYTQLLTQQVKEPALVTKEGHHHHHH
soluble on expression in E. coli: soluble

MIISDVLYGEFEVDQVVEELISSKSMQRLKGIHQNGASYLMNEKWNVTRFDHSVGVMLLVKKLGGSVKEQIASLLHDVSHTAFSHVIDYVFDNEDESYHEEIFSSVVKNSEIPAILAKHGYNYEDILLDDSKWTLLERSAPELCADRVDYTLRDMYTYGYISLEEVHRFLEDIIAVEGKMVVQSVEMAEWFTETYYKEVIDFFMKPMNIYGNDMLAKTLKLSLHKKVIHADDFLLEDEELISKLQQCNDPEVEALLSKVHPNVKVKEDRNDYDLHQKNKVRLIDPPLLREGKIVQSSVVSENIRQISDIAYEKAVRGMYVKVISN
soluble on expression in E. coli: not soluble

MIMQEIFLCSISNVRSGDCKEDCAYCTQSSHHQGAIKRYKFKDEKVVLQEARALRQLGALGFCLVTSGRELDDEKCEYIAKLAKAINQEELGLHLIACCGRADLEQLEFLRDAGIHSYNHNLETSQNFFPKICSTHTWEERFITCENALRAGLGLCSGGIFGLNESWEDRIEMLRALASLSPHTTPINFFIKNPVLPIDAETLSADEALECVLLAKEFLPNARLMVAGGREVVFKDNDKKEAKLFEYGINAVVLGDYLTTKGKAPKKDIEKLLSYGLTMATSCHLEHHHHHH
soluble on expression in E. coli: not soluble

MSLSIRSLFGGLREKILGKNMKIVFPEGNDERVVRAAARLKFEGLLEPIILGQSEEVRNLLTKLGFADQDYTIINPNEYADFDKMKEAFVEVRKGKATLEDADKMLRDVNYFGVMLVKMGLADGMVSGAIHSTADTVRPALQIIKTKPGISRTSGVFLMNRENTSERYVFADCAINIDPTAQELAEIAVNTAETAKIFDIDPKIAMLSFSTKGSGKAPQVDKVREATEIATGLNPDLALDGELQFDAAFVPETAAIKAPDSAVAGQANTFVFPDLQSGNIGYKIAQRLGMFDAIGPILQGLNKPVNDLSRGSSAEDIYKLAIITAAQAIESQGEGHHHHHH
soluble on expression in E. coli: soluble

MVAKISVGSSLFGALSYNQNKVDEEQGKVLLSNRMFESEDGNFSIRRCMECFDIHLPADLKTEKPIIHISLNPHPDDVLLDSQLADIAKEYMDKLGYGNQPYIVYKHEDIARHHIHIVSIRVDDTGKKINDKFEHIRSKQITRELEQKYGLHPAEKKQAAERPELKKVDYRAGDVKHQLSNTVKALASSYRFQSFTEYKALLSIYNVQAEEVKGEVNGKPYNGIVYSATNDKGEKQGNPFKSSSLGKSVGYEAIQRHIKKSTKDIQGKNLKERTRRTVGAVMKSTYNRKELEQELKKKGIDVLFRQNDTGRIYGVTFIDHENRTVLNGSRLGKDFSANVFNNLFSGSRTLTGNSKQEMQEHTPEFNSTGHLENTGKTIAGLFSLLSGGNDTPPDNSQVPPSKKRKKKKQRRILEHHHHHH
soluble on expression in E. coli: not soluble

MDKTKLYPEAPLTSSQWGELDELVIETARRQLVGRRFIDLYGPLGEGVQSVANDIYMNPEQGDMSFHGKELSLSEPARRVHLTIPLLYKDFILYWRDIEQAKQLGSPIDFSAAANAAQQCALLEDDLIFNGSTEFDVPGIMNVKGKIAHIRSDWMKSGNAFTDVVEARNKLLQLGHTGPYALVLSPELYALIHRVHEGTHVLEIEHIRELMTAGIYQTPVIKGKRGVVIDTGRQNIDLAVAADMQTAFLDTENMNYLFRVYESVVPRIKRPSAICTLEDPNESA
soluble on expression in E. coli: not soluble

GMVRRTRAEMEETRATLLATARKVFSERGYADTSMDDLTAQASLTRGALYHHFGDKKGLLAAVVEQIDAEMDERLQAISDTAEDDWEGFRCRCRAYLEMALEPEIQRIVLRDARAVLGGASPDSQRHCVESMQRLIDNLIRQGVVAEADPQALASLIYGSLAEAAFWIAEGEDGNARLAQGVAALELLLRGLLVKPR
soluble on expression in E. coli: soluble

GPGSMEYVGALYKDYGELLSTAQNSFLNVQSDVEGVEDVKNICARLHISIHRWEHSEELYAVRNQLHLQTQVLKAHSDHSSRVLQECVQRDELIKMHTEKSALLATKLRKQSSEVDKLQKECDKLDRKIAKRSEVAQKDLDAMAVKSTATVLSLTSQFFKVMHKNGAFIADRFSPDRAGVGAHDFDTASDDAVTGTLRRLHSVRSEMSSVAPSAVYGQNYNTFHPSEADTRVSDGARNSGIPLRYETSVPPAMSA
soluble on expression in E. coli: not soluble

MSLSVYEKVNALDKRAIEELFLSEDILMENAAMALERAVLQNASLGAKVIILCGSGDNGGDGYALARRLVGRFRVLVFEMKLTKSPMCQLQKERAKKAGVVIKTYEENALNQNLECDVLIDCVIGSHFKGKLEPFLNFESLSQKARFKIACDIPSGIDSKGRVDKRAFKADLTISMGAIKSCLLSDRAKDYVGELKVGHLGVFNPIYEIPTDTFLLEKSDLKLPLRDKKNAHKGDYGHAHVLLGKHSGAGLLSALSALSFGSGVVSVQALECEITSNNKPLELVFCENFPNLLSAFALGMGLENIPKDFNRWLELAPCVLDAGVFYHKEILQALEKEAVLTPHPKEFLSLLNLVGINISMLELLDNKLEIARDFSQKYPKVVLLLKGANTLIAHQGQVFINILGSVALAKAGSGDVLAGLILSLLSQNYTPLDAAINASLAHALASLEFKNNYALTPLDLIEKIKQLEGHHHHHH
soluble on expression in E. coli: soluble

MLSSTAIAKWQKINDVDYTWGPFKIYNISLFTETGEYKPQERPIMLTLRYNKPVDGRDFAISVAKSWANLGIALSEQNVVIERLRKILPDLKSGDALSYIALSDHGYFVLNDQVIEQEFNHEFNDAMLAIWLDPKVELSHKLITKKIEGAAQAVHYSAEYREKVTSSSEDLVSQEQRQQNLPNGTPSEATSLTEQEEREDDEKAPAISDAENDLRHSIDESAPQIVEPEQEIIPNVDPMPDYQLPVS
soluble on expression in E. coli: not soluble

MGSDKIHHHHHHMLAASMVDLARRLGVSSVHVTFPGGDEYEGLGEAGYLQRLGSQYHWTNPGYQSFDDFLGQLSSRKRKQIRKERDAVARTGIRLSTLVGGDVKARHWDVFHAFYQAVVDRKWGRAYVSRAFFEELSASALADSVVLVWAEDGGEPLGAAFNMLGGDTLYGRTWGGGRHVDFLHFEACYYRALDFAIAQGLARVEAGAQGEHKVSRGYLPNATYSAHWIADSRLAEPVARYLVHERAMVTEDMASQTEEGPFRKG
soluble on expression in E. coli: not soluble

Reference: the DeepSol protein solubility set
